The record followed here is patent US20230365662A1.

Substitutions are numbered along the chain they refer to. In names and notes the source's numbering stands. Several values for one entry are separate records, joined by “and”; a condition that tells them apart may be missing. Equal entries are not always repeated.

Assay [1] addresses HRgpA-6H (Porphyromonas gingivalis) (UniProt P28784). Put plainly: ELISA, Fab FASEBA supernatant on coated HRgpA-6H. A general note: In an ELISA, binding on a coated surface is turned into a signal by an enzyme label.
UniProt P28784, sequence (P28784 228-991 limits assumed): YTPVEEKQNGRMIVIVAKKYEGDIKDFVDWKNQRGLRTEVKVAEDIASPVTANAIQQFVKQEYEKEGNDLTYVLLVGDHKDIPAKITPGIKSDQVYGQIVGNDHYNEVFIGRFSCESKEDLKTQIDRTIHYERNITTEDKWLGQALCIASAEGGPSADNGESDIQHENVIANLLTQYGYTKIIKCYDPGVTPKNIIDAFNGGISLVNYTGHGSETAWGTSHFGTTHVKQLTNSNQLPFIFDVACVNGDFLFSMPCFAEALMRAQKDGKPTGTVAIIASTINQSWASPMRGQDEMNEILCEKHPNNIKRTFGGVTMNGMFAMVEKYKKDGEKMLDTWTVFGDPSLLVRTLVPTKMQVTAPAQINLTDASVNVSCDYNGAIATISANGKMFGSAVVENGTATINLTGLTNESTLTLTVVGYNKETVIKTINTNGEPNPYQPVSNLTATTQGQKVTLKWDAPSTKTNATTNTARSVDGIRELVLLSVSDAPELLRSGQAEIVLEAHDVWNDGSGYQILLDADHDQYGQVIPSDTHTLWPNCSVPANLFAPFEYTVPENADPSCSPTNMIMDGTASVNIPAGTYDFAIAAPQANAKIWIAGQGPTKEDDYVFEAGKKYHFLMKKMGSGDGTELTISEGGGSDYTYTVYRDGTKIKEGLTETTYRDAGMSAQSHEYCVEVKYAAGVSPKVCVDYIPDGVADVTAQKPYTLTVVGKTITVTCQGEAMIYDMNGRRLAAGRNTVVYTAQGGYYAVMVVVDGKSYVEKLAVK
The target is the same in assay [2]. Description: ELISA on coated HRgpA-6H.

B1: parental mouse (KB001) Fab FASEBA, VL variant L55R/S51G (Fab, V domains shown)
VH: EVQLKQSGPGLVAPSQSLSITCTVSGFSLSIYSVHWVRQPPGKGLEWLGMIWGGGSSDYNSALKSRLSISKDNSKSQVFLKMNSLQTDDTAMYYCARNGNFYAMDYWGQGTSVTVSS
VL: QIVLTQSPAIMSASLGERVTMTCTASSSVSSSFLHWYQQKPGSSPQLWIYGTSNRASGVPARFSGSGSGTSYSLTISSMEAEDAATYYCHQYHHSPYIYTFGGGTKLEIK
Turning to B1, in assay [1], the OD450nm amounted to 0.748 OD450nm and the Ratio OD(Variant)/OD(WT) is 0.955 ratio to WT.

B2: KB001 mouse Fab FASEBA VH L63V (Fab, V domains shown)
VH: B1 VH with L63V
VL: B1 VL with G51S, R55L
For B2, in assay [2], the OD450nm was 0.784 and 0.77 and 0.778; the Ratio OD(Variant)/OD(WT) was 0.897 and 0.881 and 0.89.

B3: KB001 mouse Fab FASEBA VH L63H (Fab, V domains shown)
VH: B1 VH with L63H
VL: B1 VL with G51S, R55L
Take B3: in assay [2], the OD450nm is 0.818 and 0.843 and 0.822; the Ratio OD(Variant)/OD(WT) was 0.936 and 0.965 and 0.941.

B4: parental mouse (KB001) Fab FASEBA, VL variant A56T (Fab, V domains shown)
VH: B1 VH
VL: B1 VL with G51S, R55L, A56T
As to B4, in assay [1], the OD450nm stood at 0.731 OD450nm and the Ratio OD(Variant)/OD(WT) is 0.896 ratio to WT.

B5: parental mouse (KB001) Fab FASEBA, VL variant A56N (Fab, V domains shown)
VH: B1 VH
VL: B1 VL with G51S, R55L, A56N
Turning to B5, in assay [1], the OD450nm was 0.712 OD450nm and 0.775 OD450nm; the Ratio OD(Variant)/OD(WT) was 0.873 ratio to WT and 0.95 ratio to WT.

B6: KB001 mouse Fab FASEBA VH K64G (Fab, V domains shown)
VH: B1 VH with K64G
VL: B1 VL with G51S, R55L
For the molecule B6, in assay [2], the OD450nm is 0.806 and the Ratio OD(Variant)/OD(WT) is 0.975.

B7: KB001 mouse Fab FASEBA VH K64S (Fab, V domains shown)
VH: B1 VH with K64S
VL: B1 VL with G51S, R55L
On to B7, for which, in assay [2], the OD450nm came to 0.808 and the Ratio OD(Variant)/OD(WT) was determined as 0.977.

B8: KB001 mouse Fab FASEBA VH K64Y (Fab, V domains shown)
VH: B1 VH with K64Y
VL: B1 VL with G51S, R55L
Consider B8, for which, in assay [2], the OD450nm came out at 0.763 and the Ratio OD(Variant)/OD(WT) is 0.923.

B9: KB001 mouse Fab FASEBA VH A62D (Fab, V domains shown)
VH: B1 VH with A62D
VL: B1 VL with G51S, R55L
For B9, in assay [2], the OD450nm was 0.853 and 0.851; the Ratio OD(Variant)/OD(WT) was 0.976 and 0.974.

B10: KB001 mouse Fab FASEBA VH A62N (Fab, V domains shown)
VH: B1 VH with A62N
VL: B1 VL with G51S, R55L
For the molecule B10, in assay [2], the OD450nm is 0.721 and 0.799; the Ratio OD(Variant)/OD(WT) was 0.825 and 0.914.

B11: parental mouse (KB001) Fab FASEBA, VL variant L55Q (Fab, V domains shown)
VH: B1 VH
VL: B1 VL with G51S, R55Q
On to B11, for which, in assay [1], the OD450nm was found to be 0.662 OD450nm and the Ratio OD(Variant)/OD(WT) is 0.845 ratio to WT.

B12: KB001 mouse Fab FASEBA VH L63Y (Fab, V domains shown)
VH: B1 VH with L63Y
VL: B1 VL with G51S, R55L
Regarding B12, in assay [2], the OD450nm was 0.836 and 0.846 and 0.801; the Ratio OD(Variant)/OD(WT) is 0.957 and 0.968 and 0.916.

B13: KB001 mouse Fab FASEBA VH S61C (Fab, V domains shown)
VH: B1 VH with S61C
VL: B1 VL with G51S, R55L
Consider B13, for which, in assay [2], the OD450nm is 0.431 and the Ratio OD(Variant)/OD(WT) stood at 0.873.

B14: KB001 mouse Fab FASEBA VH A62Q (Fab, V domains shown)
VH: B1 VH with A62Q
VL: B1 VL with G51S, R55L
With B14, in assay [2], the OD450nm was 0.737 and 0.869; the Ratio OD(Variant)/OD(WT) was 0.843 and 0.994.

B15: KB001 mouse Fab FASEBA VH K64M (Fab, V domains shown)
VH: B1 VH with K64M
VL: B1 VL with G51S, R55L
Consider B15, for which, in assay [2], the OD450nm was 0.799 and 0.757 and 0.78; the Ratio OD(Variant)/OD(WT) was 0.966 and 0.915 and 0.943.

B16: KB001 mouse Fab FASEBA VH K64H (Fab, V domains shown)
VH: B1 VH with K64H
VL: B1 VL with G51S, R55L
For B16, in assay [2], the OD450nm was determined as 0.752 and the Ratio OD(Variant)/OD(WT) was 0.909.

B17: KB001 mouse Fab FASEBA VH K64I (Fab, V domains shown)
VH: B1 VH with K64I
VL: B1 VL with G51S, R55L
Regarding B17, in assay [2], the OD450nm is 0.743 and 0.756 and 0.715; the Ratio OD(Variant)/OD(WT) was 0.898 and 0.914 and 0.865.

B18: KB001 mouse Fab FASEBA VH A62R (Fab, V domains shown)
VH: B1 VH with A62R
VL: B1 VL with G51S, R55L
As to B18, in assay [2], the OD450nm is 0.733 and 0.847 and 0.809; the Ratio OD(Variant)/OD(WT) was 0.839 and 0.969 and 0.926.

B19: KB001 mouse Fab FASEBA VH S61M (Fab, V domains shown)
VH: B1 VH with S61M
VL: B1 VL with G51S, R55L
Consider B19, for which, in assay [2], the OD450nm was 0.493 and 0.479; the Ratio OD(Variant)/OD(WT) was 0.999 and 0.971.

B20: KB001 mouse Fab FASEBA VH A62V (Fab, V domains shown)
VH: B1 VH with A62V
VL: B1 VL with G51S, R55L
B20: in assay [2], the OD450nm was 0.742 and 0.757; the Ratio OD(Variant)/OD(WT) was 0.849 and 0.866.

B21: KB001 mouse Fab FASEBA VH A62E (Fab, V domains shown)
VH: B1 VH with A62E
VL: B1 VL with G51S, R55L
As for B21, in assay [2], the OD450nm stood at 0.854 and the Ratio OD(Variant)/OD(WT) was determined as 0.977.

B22: KB001 mouse Fab FASEBA VH A62H (Fab, V domains shown)
VH: B1 VH with A62H
VL: B1 VL with G51S, R55L
Consider B22, for which, in assay [2], the OD450nm is 0.819 and 0.834 and 0.844; the Ratio OD(Variant)/OD(WT) is 0.937 and 0.954 and 0.966.

B23: KB001 mouse Fab FASEBA VH L63M (Fab, V domains shown)
VH: B1 VH with L63M
VL: B1 VL with G51S, R55L
As for B23, in assay [2], the OD450nm amounted to 0.8 and the Ratio OD(Variant)/OD(WT) stood at 0.915.

B24: KB001 mouse Fab FASEBA VH A62I (Fab, V domains shown)
VH: B1 VH with A62I
VL: B1 VL with G51S, R55L
On to B24, for which, in assay [2], the OD450nm was 0.702 and 0.808; the Ratio OD(Variant)/OD(WT) is 0.803 and 0.924.

B25: KB001 mouse Fab FASEBA VH A62M (Fab, V domains shown)
VH: B1 VH with A62M
VL: B1 VL with G51S, R55L
As to B25, in assay [2], the OD450nm was 0.77 and 0.735; the Ratio OD(Variant)/OD(WT) is 0.881 and 0.841.

B26: parental mouse (KB001) Fab FASEBA, VL variant A56Q (Fab, V domains shown)
VH: B1 VH
VL: B1 VL with G51S, R55L, A56Q
In the case of B26, in assay [1], the OD450nm stood at 0.705 OD450nm and the Ratio OD(Variant)/OD(WT) is 0.865 ratio to WT.

B27: KB001 mouse Fab FASEBA VH S61L (Fab, V domains shown)
VH: B1 VH with S61L
VL: B1 VL with G51S, R55L
For the molecule B27, in assay [2], the OD450nm stood at 0.448 and the Ratio OD(Variant)/OD(WT) was found to be 0.908.

B28: KB001 mouse Fab FASEBA VH K64V (Fab, V domains shown)
VH: B1 VH with K64V
VL: B1 VL with G51S, R55L
With B28, in assay [2], the OD450nm was 0.715 and 0.714; the Ratio OD(Variant)/OD(WT) is 0.865 and 0.863.

B29: parental mouse (KB001) Fab FASEBA, VL variant L55S (Fab, V domains shown)
VH: B1 VH
VL: B1 VL with G51S, R55S
Take B29: in assay [1], the OD450nm is 0.655 OD450nm and the Ratio OD(Variant)/OD(WT) was 0.836 ratio to WT.

B30: KB001 mouse Fab FASEBA VH L63F (Fab, V domains shown)
VH: B1 VH with L63F
VL: B1 VL with G51S, R55L
Regarding B30, in assay [2], the OD450nm was 0.743 and the Ratio OD(Variant)/OD(WT) amounted to 0.85.

B31: parental mouse (KB001) Fab FASEBA, VL variant L55H (Fab, V domains shown)
VH: B1 VH
VL: B1 VL with G51S, R55H
B31: in assay [1], the OD450nm came out at 0.64 OD450nm and the Ratio OD(Variant)/OD(WT) was 0.817 ratio to WT.

B32: KB001 mouse Fab FASEBA VH S61H (Fab, V domains shown)
VH: B1 VH with S61H
VL: B1 VL with G51S, R55L
Take B32: in assay [2], the OD450nm was 0.469 and the Ratio OD(Variant)/OD(WT) stood at 0.95.

B33: KB001 mouse Fab FASEBA VH A62L (Fab, V domains shown)
VH: B1 VH with A62L
VL: B1 VL with G51S, R55L
On to B33, for which, in assay [2], the OD450nm stood at 0.812 and the Ratio OD(Variant)/OD(WT) worked out at 0.929.

B34: parental mouse (KB001) Fab FASEBA, VL variant A56R (Fab, V domains shown)
VH: B1 VH
VL: B1 VL with G51S, R55L, A56R
For B34, in assay [1], the OD450nm is 0.728 OD450nm and 0.734 OD450nm and 0.751 OD450nm; the Ratio OD(Variant)/OD(WT) is 0.893 ratio to WT and 0.9 ratio to WT and 0.921 ratio to WT.

B35: KB001 mouse Fab FASEBA VH S61K (Fab, V domains shown)
VH: B1 VH with S61K
VL: B1 VL with G51S, R55L
On to B35, for which, in assay [2], the OD450nm was 0.49 and the Ratio OD(Variant)/OD(WT) was 0.993.

B36: KB001 mouse Fab FASEBA VH A62G (Fab, V domains shown)
VH: B1 VH with A62G
VL: B1 VL with G51S, R55L
On to B36, for which, in assay [2], the OD450nm is 0.813 and 0.785; the Ratio OD(Variant)/OD(WT) was 0.93 and 0.898.

B37: KB001 mouse Fab FASEBA VH A62F (Fab, V domains shown)
VH: B1 VH with A62F
VL: B1 VL with G51S, R55L
With B37, in assay [2], the OD450nm was 0.843 and 0.733; the Ratio OD(Variant)/OD(WT) is 0.965 and 0.839.
